From the supplement of paper PMC10567573

B1: DLC1 (parent)
chain: HVTHWMGQPFNSDDRNTACHHGLV
B2: FADS1 (parent)
chain: LNFQIEHHLFPTMPRHNYHKVAPL

Variants of: B1
Assay: protein stability index of a GFP-peptide fusion (GPS, HEK-293T) (PSI 1-6); higher = more stable
Conditions: c terminus: a fixed tail appended
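Also: lentivirally expressed fusions sorted by FACS into six bins by GFP to DsRed ratio, PSI derived from sequencing read proportions per bin multiplied by bin number.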

Protein stability index of substitutions, site by site:
L23: V 2.39; W 1.86; Y 2.07
V24: A 2.31; C 2.16; D 2.66; E 2.5; F 1.45; G 1.92; H 2.28; I 2.08; K 2.6; L 2.35; M 2.04; N 2.05; P 2.22; Q 2.19; R 2.22; S 2.35; T 2.39; W 2.09; Y 1.69

Variants of: B2
Assay: as above
Conditions: c terminus: a fixed tail appended

Protein stability index: each site, then its substitutions
L1: A 1.91; C 2.11; D 1.31; E 2.29; F 3.4; G 2.63; H 2.1; I 2.2; K 2.03; M 1.63; N 1.95; P 2.26; Q 2.31; R 2.48; S 1.84; T 2.03; V 2.18; W 3.02; Y 1.93
N2: A 2.02; C 1.98; D 2.91; E 2.42; G 1.24; H 2.37; I 3.16; K 2.28; L 3.82; M 1.53; P 1.65; Q 1.91; R 2.09; S 1.88; T 2.76; V 2.5; W 3.67; Y 1.77
F3: A 2.58; C 2.22; D 3.03; E 2.65; G 2.42; H 1.83; K 1.88; L 1.73; M 2.31; N 2.52; P 1.95; Q 2.17; R 1.96; S 2.15; T 2.4; V 1.96; W 1.92; Y 1.37
Q4: A 1.44; C 1.86; D 1.66; E 2.25; F 2.52; G 2.08; H 2.67; I 3.5; K 1.92; L 3.1; N 2.22; P 1.24; R 1.6; S 1.3; T 2.74; V 3.42; Y 3.01
I5: A 1.83; C 2.33; D 2.4; E 2.1; F 2.87; G 2.01; H 1.83; K 2.06; L 2.35; M 1.63; N 2.52; P 2.14; Q 1.83; R 2.27; S 2.18; T 1.65; V 2.73; W 1.43; Y 2.57
E6: A 2.54; C 2.65; D 2.54; F 3.4; G 1.77; H 2.31; K 2.21; L 2.27; M 2.24; N 1.19; P 2.11; Q 2.38; R 2.07; S 1.8; V 3.6; W 2.57; Y 2.06
H7: A 2.31; C 3.38; D 1.93; E 1.76; G 1.55; I 3.32; K 2.75; L 3.47; M 2.96; N 1.4; P 2.19; Q 2.45; R 1.65; S 1.81; T 2.82; W 3.85
H8: A 1.87; C 2.41; D 2.14; E 3.1; F 2.4; G 1.58; I 3.23; K 1.93; L 2.44; M 2.14; N 2.06; P 2.11; Q 2.35; R 1.74; S 2.12; T 2.26; V 1.5; W 2.58; Y 2.57
L9: A 1.39; C 1.72; D 2.04; E 1.23; F 3.13; G 2.83; H 1.8; I 2.01; K 1.36; M 1.95; N 1.57; P 1.5; Q 1.34; R 1.87; S 2.71; T 1.42; V 2.37; W 3.23; Y 2.1
F10: A 2.17; C 2.71; D 1.74; E 1.24; G 2.73; H 3.04; I 2.97; K 2.14; L 1.55; M 1.37; N 2.28; P 1.24; Q 1.92; R 1.87; S 1.66; T 1.39; V 1.05; W 2; Y 2.17
P11: A 2.35; C 2.3; D 3.83; E 2.56; F 2.77; G 1.9; H 3.14; I 2.19; K 2.46; L 2.53; N 2.27; Q 2.73; R 1.81; S 2; T 2.24; V 2.17; W 3.17; Y 2.96
T12: A 2.56; C 2.74; D 1.98; E 2.42; F 2.79; G 1.47; H 1.46; I 2.5; K 1.92; L 2.08; M 1.73; N 1.77; P 3.45; Q 1.99; S 2.65; V 2.29; W 2.45; Y 2.5
M13: A 2.02; C 1.75; D 1.82; E 1.35; F 1.97; G 2.13; H 2.04; I 2.35; K 1.75; L 1.62; N 1.91; Q 1.15; R 1.4; S 2.59; V 2.6; W 2.66; Y 2.83
P14: A 2.64; C 3.64; D 2.52; E 2.13; F 2.39; G 2.43; H 1.9; I 2.08; L 1.18; M 2.44; N 3.36; Q 2.54; R 1.76; S 2.71; T 1.9; V 2.38; Y 3.17
R15: A 3.26; C 3.14; D 1.98; E 1.81; F 2.68; G 3.15; H 1.84; I 2.88; K 2.35; L 2.42; N 2.43; Q 1.33; S 2.95; T 2.55; V 2.01; W 2.99; Y 3.31
H16: C 3.19; D 3.61; E 2.52; F 2.12; G 1.24; I 2.46; K 1.22; L 1.96; M 4.22; N 2.2; P 2.19; R 2.13; S 1.28; T 1.77; V 2.36; Y 3.52
N17: A 1.98; C 3.44; D 2.28; E 2.35; F 2.83; G 1.27; H 1.81; I 1.5; K 1.27; L 3.08; M 1.58; P 2.71; Q 2.33; R 2.48; S 2.02; T 2.19; V 1.43; W 2.84; Y 2.39
Y18: A 2.95; C 2.42; D 1.44; E 2.65; F 2.72; G 1.81; H 1.6; I 2.23; K 2.25
